Reference: patent publication US20240343762A1, “USE OF PROTON PUMP MODULATOR IN PREPARING REAGENT” (SHANGHAI QUIETD BIOTECHNOLOGY CO. LTD., priority 2021, published 2024)

Target: ATP6V1B2 (Mus musculus, UniProt P62814)
Assay: Immunoprecipitation from hippocampus of mice given biotin-labeled polypeptide, with SDS-PAGE and protein mass spectrum identification
Type: binding
Design: from tissue; host or cells: mouse brain hippocampus
Settings: biotin-labeled polypeptide 6.25 mg/kg through veins, hippocampus collected after 4 h, compared with disordered control QD201
Experimental: (1) Polypeptide QD202 was synthesized according to the amino acid sequence as set forth in SEQ ID NO. 1, and a biotin label was added at the […] of the polypeptide; and the amino acid sequence of the QD202 was randomly disorganized, a disordered control QD201 (the amino acid sequence as set forth in SEQ ID NO. 7) was synthesized, and the biotin label was added at the […] of the polypeptide. The polypeptide QD202 and the QD201 were dissolved by PBS, and a storage solution is prepared with the concentration of 500 μM.
(2) The biotin-labeled QD202 and QD201 were respectively feed to 2 C57BL/6 mice of 8 months old through veins at the dosage of 6.25 mg/kg. The mice were anesthetized after 4 h, brain hippocampus tissues were collected, a lysis buffer solution was added, the tissues were crushed by mechanical grinding, and then supernatant was collected after centrifuging. The biotin antibody and Protein G agarose beads were added into the supernatant for immunoprecipitation, the test steps referred to Using Antibodies: A Laboratory Manual [J]. Science Press, 2002. The proteins were eluted by a protein loading buffer solution. […]

Chain of ATP6V1B2 (P62814 whole entry): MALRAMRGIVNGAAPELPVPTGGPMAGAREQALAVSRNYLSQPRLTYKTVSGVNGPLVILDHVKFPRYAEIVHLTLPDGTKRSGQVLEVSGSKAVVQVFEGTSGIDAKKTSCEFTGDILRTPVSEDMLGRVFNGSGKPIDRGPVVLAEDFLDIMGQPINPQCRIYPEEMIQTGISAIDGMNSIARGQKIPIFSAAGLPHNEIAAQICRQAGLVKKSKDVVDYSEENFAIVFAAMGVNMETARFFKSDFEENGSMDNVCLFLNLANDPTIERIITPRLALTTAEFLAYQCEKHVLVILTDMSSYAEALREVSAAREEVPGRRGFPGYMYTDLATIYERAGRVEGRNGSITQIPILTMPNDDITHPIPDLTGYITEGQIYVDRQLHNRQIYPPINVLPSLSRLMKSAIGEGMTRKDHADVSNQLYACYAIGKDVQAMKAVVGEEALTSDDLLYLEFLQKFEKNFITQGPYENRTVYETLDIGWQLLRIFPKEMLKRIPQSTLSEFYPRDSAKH

QD202: polypeptide synthesized according to the amino acid sequence as set forth in SEQ ID NO. 1 (YGRKKRRQRRRSPVDVVCS; QD202)
protein specifically bound to the polypeptide (mass spectrum identification): protein specifically bound to QD202 was ATP6V1B2
